Assay results taken from US20180186880A1.

Target: B7-H3 ECD (extracellular domain of B7-H3) (UniProt Q5ZPR3)
Test: adsorption ELISA on B7-H3 ECD, serial dilutions of purified mAb, estimate of binding affinity

B1: TRL4542 (antibody, V domains shown)
VH: QVQLVESGGDLVQPGESLRLSCAASGFIFSDAWMVWVRQAPGKGLEWVGRIKTNGDGGTTDLTEPVKGRFTISRDDSKNMVYLQMNNLRTEDTAIYYCTTAPGFWGQGTLVTVSS
VL: DIEMTQSPDSLAVSLGERATINCKSSHNLLYKSNNKNYLAWSQQKPGQPPRLLIYWASTRDSGVPDRFSGSGSGTDFTLTISSLQAEDVAVYYCHQYYGTKWTFGQGTRVEIKR
With B1 the Affinity was 5 nM.
